Experiment [1] has as its target T1, human LAG-3 protein with hFc tag (hLAG-3-hFc protein) (human, UniProt P18627 23-450).
T1 construct: also called immunogen 1; LAG-3 extracellular domain protein; not shown: human IgG Fc fragment (hFc) of the pCpC vector
T1 sequence: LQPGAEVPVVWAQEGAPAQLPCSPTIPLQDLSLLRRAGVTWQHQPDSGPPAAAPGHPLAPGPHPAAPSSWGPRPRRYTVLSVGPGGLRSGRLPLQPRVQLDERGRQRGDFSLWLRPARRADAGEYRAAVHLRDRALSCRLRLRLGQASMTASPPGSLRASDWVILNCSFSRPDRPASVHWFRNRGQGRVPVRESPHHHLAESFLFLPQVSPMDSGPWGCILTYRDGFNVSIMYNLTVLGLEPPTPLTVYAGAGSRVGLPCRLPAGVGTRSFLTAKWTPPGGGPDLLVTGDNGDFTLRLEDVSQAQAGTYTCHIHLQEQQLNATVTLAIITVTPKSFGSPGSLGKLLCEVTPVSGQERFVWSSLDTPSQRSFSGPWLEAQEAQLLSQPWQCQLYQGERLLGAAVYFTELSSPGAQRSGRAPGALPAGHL
Put plainly: FACS, blocks LAG-3-hFc binding to MHC II on Raji; 200.000 nM. The method, then:
The FACS reaction plate incubating the Raji cells was centrifuged to discard the supernatant. The above mixture was added as 100 μl per well to Raji cells and incubated on ice for 1-2 hours. The plate was washed twice with blocking solution (PBS, 2% fetal bovine serum) by centrifugation, added with 100 microliters of fluorescent (Alexa 488)-labeled secondary antibodies per well, and incubated on ice for 1.0 hours. The plate was washed 2-3 times by centrifugation with blocking solution (PBS, 2% fetal bovine serum), added with 100 microliters of PBS per well to suspend cells, and detected using FACS (FACS Calibur, BD) and the results were analyzed. Wherein, the IgG control was murine IgG, and the data in the table is the inhibition rate (%).
(In flow cytometry, cells or beads pass a laser one at a time.)

For experiment [2], the target named is T2, monkey LAG-3 (full length, on the cell surface) (monkey, UniProt P18627 24-525 (human entry)).
T2 construct: also called HEK293-cLAG-3; monkey LAG-3 protein on the cell surface
T2 chain: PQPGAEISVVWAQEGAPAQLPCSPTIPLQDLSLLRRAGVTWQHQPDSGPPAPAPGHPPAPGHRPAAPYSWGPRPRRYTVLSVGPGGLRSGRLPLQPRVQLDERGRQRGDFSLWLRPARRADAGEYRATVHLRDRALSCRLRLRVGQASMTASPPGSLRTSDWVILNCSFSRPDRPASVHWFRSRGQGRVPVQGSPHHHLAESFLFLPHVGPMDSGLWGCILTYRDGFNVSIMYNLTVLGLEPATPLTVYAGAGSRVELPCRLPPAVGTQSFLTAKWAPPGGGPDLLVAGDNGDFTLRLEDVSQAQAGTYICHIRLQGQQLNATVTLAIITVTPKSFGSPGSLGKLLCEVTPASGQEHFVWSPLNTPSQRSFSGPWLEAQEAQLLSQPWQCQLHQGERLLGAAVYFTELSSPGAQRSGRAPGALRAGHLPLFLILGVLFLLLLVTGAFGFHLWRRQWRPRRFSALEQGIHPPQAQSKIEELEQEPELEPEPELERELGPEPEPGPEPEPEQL
In words: FACS, HEK293-cLAG-3; 8.000 nM. The text has this: (§1) The pIRES plasmid with the monkey-derived full-length gene was transfected into the HEK293 cell line to construct a HEK293 stable cell line containing monkey LAG-3 (herein referred to as HEK293-cLAG-3 stable cell line). The HEK293-hLAG-3 stable cell line and HEK293-cLAG-3 stable cell line were expanded in a T-75 cell culture flask to a 90% confluence. The medium was aspirated, and the cells were washed with HBSS (Hanks' Balanced Salt Solution) 1-2 times, then treated with a enzyme-free cell dissociation fluid (Versene solution: Life technology) and the cells were collected. The cells were washed with HBSS buffer for 1-2 times. After counted, the cells were diluted with HBSS to 1-2×10⁶ cells per ml, added with 1% goat serum blocking solution, incubated on ice for 20-30 minutes, and then washed with HBSS for 2 times by centrifugation. The collected cells were suspended in the FACS buffer (HBSS+1% BSA) to 2×10⁶ cells/ml, added as 100 microliters per well to a 96-well FACS reaction plate, added with 100 microliters per well of the antibody sample to be tested, incubated on ice for 1-2 hours. The plate was washed twice with the FACS buffer by centrifugation, added with 100 microliters of fluorescent (Alexa 488)-labeled secondary antibodies per well, and incubated on ice for 0.5-1.0 hours. The plate was washed 2-3 times with FACS buffer by centrifugation, added with 100 μl fixative solution (4% Paraformaldehyde) per well to suspend the cells. 5-10 minutes later, it was washed 1-2 times with FACS buffer by centrifugation. The cells were suspended with 100 microliters of FACS buffer, FACS (FACSCalibur, BD) was used for detection and the results were analyzed.

Experiment [3] deals with T3, human LAG-3 (full length, on the cell surface) (human, UniProt P18627 23-525).
T3 construct: Full-length human LAG-3 expressed on cells; also called HEK293-hLAG-3; HEK293 cells transfected with LAG-3 gene
T3 sequence: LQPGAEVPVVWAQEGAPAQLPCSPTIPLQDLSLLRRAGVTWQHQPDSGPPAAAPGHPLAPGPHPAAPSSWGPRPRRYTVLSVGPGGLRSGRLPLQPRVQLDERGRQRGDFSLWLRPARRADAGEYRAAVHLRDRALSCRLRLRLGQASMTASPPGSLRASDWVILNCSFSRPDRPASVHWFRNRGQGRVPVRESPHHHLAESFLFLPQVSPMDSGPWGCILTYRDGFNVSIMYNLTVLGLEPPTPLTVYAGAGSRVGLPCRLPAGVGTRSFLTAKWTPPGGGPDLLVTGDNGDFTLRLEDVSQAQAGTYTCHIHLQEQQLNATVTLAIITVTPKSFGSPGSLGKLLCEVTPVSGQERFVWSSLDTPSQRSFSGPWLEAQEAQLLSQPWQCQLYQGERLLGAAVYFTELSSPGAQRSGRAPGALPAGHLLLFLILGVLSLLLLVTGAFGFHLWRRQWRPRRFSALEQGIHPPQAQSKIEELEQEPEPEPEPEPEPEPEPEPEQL
Put plainly: FACS, HEK293-hLAG-3; 0.013 nM.
Description: as §1

Positions count from the first letter of the chain named.

B1: 556F6B8 (mouse antibody purified from hybridoma) (antibody, V domains shown)
VH: RVQLKQSGPGLVQPSQSLSITCTVSGFSLIKYGVHWVRQSPGEGLEWLGVIWRGGITDYNAAFMSRLSITKDNSKSQVFFKMNSLQADDTAIYYCAKWDGPLAMDYWGQGTSVTVSS
VL: DIVMTQSHKFLSTSVGDRVSITCKASQDVGTTVAWYQQKPGQSPKLLIYWASTRHTGVPDRFTGSGSGTDFTLTISNVQSEDLADYFCQQYSSYPYTFGGGTKLEIK
notes: also called mAb123-556F6B8
B1: the “Inhibition rate (%)” value in experiment [1] was found to be 96%. For the same molecule, the Mean fluorescence intensity in experiment [2] is 46.7 MFI; in experiment [3], 3.6 MFI.

B2: 405B8H3 (mouse antibody purified from hybridoma) (antibody, V domains shown)
VH: QVQLQQSGAELVRPGASVTLSCKASGYTFTDYEMHWVKQTPVHGLEWIGATDPETGNSAYNQKFKGKAIMTADKSSSTAYMELRSLTSEDSAVYYCISTGWNDWGQGTSLTVSS
VL: DIKMTQSPSSMYASLGERVTITCKASQDINSYLSWFQQKPGKSPKTLIYRADRLLDGVPSRFSGSGSGQDYSLTISSLEYGDMGIYYCLQYDEFPYTFGGGTKLEIK
notes: also called mAb103-405B8H3; 405B81-13
B2: the “Inhibition rate (%)” value in experiment [1] came to 93.9%. The Mean fluorescence intensity in experiment [2] is 61.4 MFI; in experiment [3] it was 5 MFI.

B3: 105F1E10 (mouse antibody purified from hybridoma) (antibody, V domains shown)
VH: EVQLQQSGPELVKPGASVKMSCRASGYTFTDFKMHWMKQSHGKSLEWIGYIAPNNGGTAYNQKFRGKATLTVNESSNTAYMELRSLTSEDSAVYYCVDWDDVDYWGQGTTLTVSS
VL: B2 VL with P40S, D52N, L55V, G81E, D92V, Y96L, G100A, I106L
notes: also called mAb009-105F1E10
In the case of B3, in experiment [1], the “Inhibition rate (%)” value came out at 93.1%. Also, the results for the Mean fluorescence intensity in experiment [2] and in experiment [3] were 44.6 MFI and 5 MFI, respectively.

B4: 409B11E12 (mouse antibody purified from hybridoma) (antibody, V domains shown)
VH: B2 VH with P41T, G56S, N57Y, M70L, S98A
VL: B2 VL with I2L, D52N, G81E
notes: also called mAb104-409B11E12
As to B4, the “Inhibition rate (%)” value in experiment [1] amounted to 95%. Further, the Mean fluorescence intensity in experiment [2] worked out at 69.9 MFI; in experiment [3] it was 2.9 MFI.

B5: 409D4E10 (mouse antibody purified from hybridoma) (antibody, V domains shown)
VH: B2 VH with Y27N, G56D, S58T, M70L, A72T, S98T, T99S
VL: B2 VL with D52N, G81E, D92N
notes: also called mAb112-409D4E10
On to B5, for which, in experiment [1], the “Inhibition rate (%)” value turned out to be 95.9%. The results for the Mean fluorescence intensity in experiment [2] and in experiment [3] were 93.8 MFI and 3.3 MFI, respectively.
